The data set can be described thus: amyloid nucleation score (Sup35N fusion, yeast selection) (log enrichment); library NNK3; higher = more nucleation; inactive = no reads after selection. A digest of the protocol: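 The nucleation score is the log enrichment of output over input reads, calculated with DiMSum and centred on the mode score of non-aggregating sequences. Sequences with under 100 input reads were excluded. Reads came from Illumina sequencing of plasmid inserts from psi-negative yeast expressing Sup35N fused to peptides of 20 random codons, induced 24 hours with 100 μM copper sulfate and grown 7 days at 30°C without adenine and uracil.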

± gives the uncertainty stated by the source.

The substance YSFRNSIDAFRLEYKKRYRF gave an amyloid nucleation score of -0.403 ± 0.93.

As to SGWLA, the amyloid nucleation score entry is “inactive”.

HLLELELVFSILRRLMYWPM: the amyloid nucleation score result was “inactive”.

Consider IHWGRAGATEAAST, for which the amyloid nucleation score entry was “inactive”.

For LGLILIVLLVRPVFDSKRLD, the amyloid nucleation score entry is “inactive”.

For YDYYFFNSFNISDIMR, the amyloid nucleation score result is “inactive”.

The substance LRYGEFSCSNLYFTWLSFIL had an amyloid nucleation score of 0.749 ± 0.17.

YPNIERFTETWISYVDQNRG had an amyloid nucleation score of -0.083 ± 0.58.

Take RPQSLVYRFISYHRLYYLYR: the amyloid nucleation score result was “inactive”.

For the substance FGELS, the amyloid nucleation score result is “inactive”.

As for AYRYTHVCDMVLKWAVCCFY, the amyloid nucleation score entry was “inactive”.

For DSVRASSLLWMFWCIVEFHG, the amyloid nucleation score result was “inactive”.

On to FMVSMIIESSAGTFFMLSLV, for which the amyloid nucleation score entry is “inactive”.

ICDSDFRY: the amyloid nucleation score result was “inactive”.

As for VRWYCS, the amyloid nucleation score result is “inactive”.

As to VYASCTFNIEKVLSVVQTTF, the amyloid nucleation score was 1.52 ± 0.087.

VAADITSEA: the amyloid nucleation score entry was “inactive”.

With IDIVCAF, the amyloid nucleation score result is “inactive”.

Regarding TWVTAGYCVNIYRTRSWMK, the amyloid nucleation score result was “inactive”.

In the case of ISRAVRILVVFDEVWMCSDG, the amyloid nucleation score result was “inactive”.

YVFFLSLNIKPMLYTTLVGV yielded an amyloid nucleation score of -0.138 ± 0.51.

For the substance KREECILWLPLGNLLYNVLR, the amyloid nucleation score entry was “inactive”.

Regarding VGLAVVSLLSNRRNEDELCF, the amyloid nucleation score entry is “inactive”.

As for SGITIEF, the amyloid nucleation score result was “inactive”.

GLEFRARRKCRTKGELHDK: the amyloid nucleation score result is “inactive”.

With SNVCINLAGYDYIFFRCMMG, the amyloid nucleation score worked out at 0.293 ± 0.24.

Regarding ALVCYK, the amyloid nucleation score entry is “inactive”.

In the case of YFMVEVMLILMSDGAFYTFC, the amyloid nucleation score entry is “inactive”.

ISRSVIIDSQRGLCCQTWDW: the amyloid nucleation score entry was “inactive”.

Regarding WDNLCGTAFHAVN, the amyloid nucleation score entry is “inactive”.

In the case of LEVWSRRYWCHRLFNSIAMM, the amyloid nucleation score result is “inactive”.

Consider FGGSILTSYINGRGSAGLNW, for which the amyloid nucleation score came out at 0.797 ± 0.22.

As for RTLVPGTHR, the amyloid nucleation score entry is “inactive”.

Substance GTYCFINLTTRTGDRKGRHA registered an amyloid nucleation score of 1.05 ± 0.12.

Substance GGVTFYMYCIRLVNDQQGHR had an amyloid nucleation score of 1.21 ± 0.098.

Consider NFRCDICLPNLTRY, for which the amyloid nucleation score came to 0.313 ± 0.16.

In the case of QLLHDGNLNVGIFMRYSQGR, the amyloid nucleation score came to 1.29 ± 0.093.

In the case of SGFHERCFINQPVFST, the amyloid nucleation score entry was “inactive”.

As to VLLFYLKVTRASTVGVLSSS, the amyloid nucleation score entry was “inactive”.

Regarding FIGDVLGSINGKCHLEYLYF, the amyloid nucleation score entry was “inactive”.

With MYKFCSY, the amyloid nucleation score result was “inactive”.

As for WFSYQFV, the amyloid nucleation score entry is “inactive”.

As to HSSGDTWLGRV, the amyloid nucleation score entry is “inactive”.

With LSDDMPKV, the amyloid nucleation score result is “inactive”.

In the case of MWSVLIRSTIDYAVPNWSRF, the amyloid nucleation score entry is “inactive”.

For the substance RVGTAF, the amyloid nucleation score is -0.517 ± 0.84.

With YHSLYTAPDEGLFYRNRRKF, the amyloid nucleation score result is “inactive”.

IVYTMCDFWSSMDLVDNLQG: the amyloid nucleation score result was “inactive”.

As for SRRSMHRVVSHVREGS, the amyloid nucleation score is -0.164 ± 0.96.

In the case of SDWIRNG, the amyloid nucleation score entry is “inactive”.

As to SLKARDVRSWSLSLLVQLAF, the amyloid nucleation score result is “inactive”.

On to ICPTWELNIRP, for which the amyloid nucleation score entry was “inactive”.

For DVTTDDSSFRYMLKLLRGIT, the amyloid nucleation score result is “inactive”.

With DTRVGP, the amyloid nucleation score entry was “inactive”.

Turning to QRITDKMSYADSLLRSST, the amyloid nucleation score result is “inactive”.

Regarding TCCCVYGTMIISEYFHGSNM, the amyloid nucleation score was determined as 2.73 ± 0.056.

In turn, LVLMVSQGSYFTTI displayed an amyloid nucleation score of -0.474 ± 0.57.

In the case of RSSFKG, the amyloid nucleation score entry was “inactive”.

For the substance VLRKLYLSPDSGVNYCGDPV, the amyloid nucleation score result is “inactive”.

With VRNVKSNANCCFN, the amyloid nucleation score result is “inactive”.

Take LYKSNPLFPCQFCLISGKFC: the amyloid nucleation score stood at 0.868 ± 0.12.

The substance YIRLCSVFGTTWYARLDG registered an amyloid nucleation score of 0.459 ± 0.27.

Take IWKAWDNSSMGCPS: the amyloid nucleation score was -0.032 ± 0.33.

In turn, AQFGQTWFANFTSVFYCWSE came in with an amyloid nucleation score of 2.06 ± 0.064.

In turn, LSSYTVSFPKRMHRSEYFGY displayed an amyloid nucleation score of -0.73 ± 0.9.

Take VIIIEWV: the amyloid nucleation score result is “inactive”.

SFNITAWMMFMNVIQGYSI came in with an amyloid nucleation score of 2.38 ± 0.059.

In the case of DSMLVISVRVRTCMLGNVVA, the amyloid nucleation score entry is “inactive”.

Take KGVGFPVCTSNG: the amyloid nucleation score entry is “inactive”.

LFMKSVEMWNRGYLSITCMC: the amyloid nucleation score entry was “inactive”.

For the substance HAGATL, the amyloid nucleation score entry is “inactive”.

For the substance PLEVLAKFFWDDWATHSMDL, the amyloid nucleation score result was “inactive”.

LISNAQA: the amyloid nucleation score entry was “inactive”.

With NQVMKSNVVYYKATVNNMCF, the amyloid nucleation score was determined as 2.09 ± 0.071.

As for RSTVYWFWRSSELLALRLHR, the amyloid nucleation score result was “inactive”.

With EGVFHACDSTGT, the amyloid nucleation score was -0.737 ± 1.5.

NSGYVYGIQCNVWVLAFMGF came in with an amyloid nucleation score of 2.7 ± 0.068.

Regarding EDSRLLGC, the amyloid nucleation score is 0.724 ± 0.14.

As for FFCGFRKTAASHFLFLVKDW, the amyloid nucleation score entry is “inactive”.

For the substance NSDSFML, the amyloid nucleation score result is “inactive”.

For the substance REVYLMRSEPWRLLFDGKYR, the amyloid nucleation score entry is “inactive”.

With VRVMNGTRTSCLVR, the amyloid nucleation score is -0.834 ± 1.

On to ISYSAMVNCPDEIWVRYSSW, for which the amyloid nucleation score result is “inactive”.

Regarding NFVGTICLCLSYYVSVNSCC, the amyloid nucleation score result was “inactive”.

As for IMGYGWDCTSDGLCVTCFYS, the amyloid nucleation score result is “inactive”.

KSYFANSG: the amyloid nucleation score entry was “inactive”.

For the substance GIRHVGLVGTMSRKDWSYFR, the amyloid nucleation score result was “inactive”.

As to YKSLIVNANYCDLGFLRGWC, the amyloid nucleation score stood at 2.6 ± 0.064.

Consider SNVLGWLRKLYS, for which the amyloid nucleation score entry is “inactive”.

FIEVEVWRESSR: the amyloid nucleation score entry is “inactive”.

Turning to TRAMHSFWFESDCKY, the amyloid nucleation score result was “inactive”.

Consider MYSMVGNLTRSWEGIGLGLM, for which the amyloid nucleation score result is “inactive”.

Regarding PLEWNNGVYISGWLWVLVSW, the amyloid nucleation score was -0.518 ± 0.63.

As for NESHILPVVVMDCLRTFPTE, the amyloid nucleation score result is “inactive”.

The substance VFFVQCNHWNGMVNVFAM came in with an amyloid nucleation score of 2.9 ± 0.057.

For the substance SSSQTISQGDSGHLHYKVWS, the amyloid nucleation score entry was “inactive”.

Regarding ICINVESIKPMRWQAMI, the amyloid nucleation score result is “inactive”.

Turning to LKYSHEHGFFSYYACWCQQL, the amyloid nucleation score result is “inactive”.

For the substance IQLICEAIAGFLYNVIFVVL, the amyloid nucleation score result is “inactive”.

As for YFGNSGWDHGWPVVHKMSFS, the amyloid nucleation score result was “inactive”.

Consider SRRTIVNQSSF, for which the amyloid nucleation score entry was “inactive”.

In the case of TTMNVTFVPANLWCKSSHEA, the amyloid nucleation score entry is “inactive”.

For the substance LTRFQ, the amyloid nucleation score entry was “inactive”.

As for NLNKNRLLMTMHWNRVFLMS, the amyloid nucleation score result was “inactive”.

Consider VSVRVDLILKVVRRSSVWFT, for which the amyloid nucleation score result was “inactive”.

PFSFKLPR: the amyloid nucleation score entry is “inactive”.

As to LHTICHMLLIH, the amyloid nucleation score result was “inactive”.

As to MLSMTRCAHIDGGDWFKMAV, the amyloid nucleation score result was “inactive”.

As to NTFVPVLVFGFYYVLIMISN, the amyloid nucleation score entry is “inactive”.

As to YLKMLSVLKWRKNISRFVLP, the amyloid nucleation score result is “inactive”.

For the substance SELRWYL, the amyloid nucleation score entry is “inactive”.

With HASSHYT, the amyloid nucleation score entry is “inactive”.

Regarding LKYLCYHRQCSLMPRCWMDR, the amyloid nucleation score entry is “inactive”.

Consider IIKDLPVCVDERASYAEVMS, for which the amyloid nucleation score result is “inactive”.

Regarding SLLGISVFKPERANTGQRLV, the amyloid nucleation score worked out at 0.721 ± 0.23.

The substance TRPLSDPVLINVYWRETSYP registered an amyloid nucleation score of -0.33 ± 0.47.

DLQFGVGVTASPAAYCRYLS: the amyloid nucleation score result was “inactive”.

As to DRVCSSRML, the amyloid nucleation score result is “inactive”.

Consider TMVQECHYARSVSLYYNANA, for which the amyloid nucleation score result is “inactive”.

Regarding TVCYYWRN, the amyloid nucleation score turned out to be 0.911 ± 0.2.

For the substance RAEMMSYTLVQIIGYISIVE, the amyloid nucleation score entry is “inactive”.

Consider VRGQFSSSVLGRCLGWAWTR, for which the amyloid nucleation score result was “inactive”.

With NLTQFYWSCGEVRVTAFYGA, the amyloid nucleation score was 2.08 ± 0.079.

Consider TSEVVQ, for which the amyloid nucleation score entry was “inactive”.

SRVLDGVWRAVLSCFQGSSI gave an amyloid nucleation score of 0.867 ± 0.12.

With RVPYR, the amyloid nucleation score entry was “inactive”.

For the substance LCITPNLKSFFESYVRFSEL, the amyloid nucleation score entry was “inactive”.

Substance QALTFIMWETDTSHGTCLNG showed an amyloid nucleation score of 1.46 ± 0.07.

For IRPSLLMSLQNNDMMADLEV, the amyloid nucleation score was -0.538 ± 0.55.

Consider CVNMLRKTVIYFLHFPAYYR, for which the amyloid nucleation score entry is “inactive”.

Turning to TGRVCFLCYTMSLIWSSPVT, the amyloid nucleation score is 0.07 ± 0.7.

With SIQCSK, the amyloid nucleation score entry is “inactive”.

Regarding PLCATFKDTNRNNTVYRSLF, the amyloid nucleation score result was “inactive”.

The substance RFYSARGGKRARIHVRVKWD returned an amyloid nucleation score of -0.446 ± 0.55.
